Test results taken from the supplement of paper PMC5998384.

Tests used:
[1] = system: HeLa Kyoto; experiment: solubility in G1/S (NP-40 vs SDS abundance) (log2 ratio); higher = more soluble; conditions: cell cycle stage: G1/S
[2] = system: HeLa Kyoto; experiment: thermal stability score vs G1/S (z-score of summed log2 fold changes over temperatures); higher = more thermally stable than in G1/S
[3] = system: HeLa Kyoto; experiment: solubility change mitosis vs G1/S (difference of NP-40 vs SDS log2 ratios) (log2 ratio difference); higher = more soluble in mitosis
[4] = system: HeLa Kyoto; experiment: melting temperature (median over replicates), in situ; higher = more thermally stable
[5] = cell cycle stage: early G1 (4.5 h after nocodazole release)
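Throughout, for melting temperature (median over replicates), in situ: HeLa Kyoto cells synchronized by double thymidine or nocodazole block, proteins quantified by TMT10plex mass spectrometry, three independent biological replicates.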
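Throughout, for solubility change mitosis vs G1/S (difference of NP-40 vs SDS log2 ratios): synchronized HeLa Kyoto cells (double thymidine block for G1/S, nocodazole release for mitosis), protein amounts in NP-40 versus SDS lysates quantified by mass spectrometry, three biological replicates.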
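Throughout, for solubility in G1/S (NP-40 vs SDS abundance): HeLa Kyoto cells arrested at G1/S by double thymidine block, proteins quantified by TMT10plex mass spectrometry in mild NP-40 versus SDS extracts, three biological replicates.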
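Throughout, for thermal stability score vs G1/S (z-score of summed log2 fold changes over temperatures): synchronized HeLa Kyoto cells, proteins quantified by TMT10plex mass spectrometry, three biological replicates, mitosis taken 0.5 h after nocodazole release, G1/S directly after double thymidine block.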

Sequence: MSEQSICQARAAVMVYDDANKKWVPAGGSTGFSRVHIYHHTGNNTFRVVGRKIQDHQVVINCAIPKGLKYNQATQTFHQWRDARQVYGLNFGSKEDANVFASAMMHALEVLNSQETGPTLPRQNSQLPAQVQNGPSQEELEIQRRQLQEQQRQKELERERLERERMERERLERERLERERLERERLEQEQLERERQERERQERLERQERLERQERLERQERLDRERQERQERERLERLERERQERERQEQLEREQLEWERERRISSAAAPASVETPLNSVLGDSSASEPGLQAASQPAETPSQQGIVLGPLAPPPPPPLPPGPAQASVALPPPPGPPPPPPLPSTGPPPPPPPPPLPNQVPPPPPPPPAPPLPASGFFLASMSEDNRPLTGLAAAIAGAKLRKVSRMEDTSFPSGGNAIGVNSASSKTDTGRGNGPLPLGGSGLMEEMSALLARRRRIAEKGSTIETEQKEDKGEDSEPVTSKASSTSTPEPTRKPWERTNTMNGSKSPVISRRDSPRKNQIVFDNRSYDSLHRPKSTPLSQPSANGVQTEGLDYDRLKQDILDEMRKELTKLKEELIDAIRQELSKSNTA [ENAH]
- solubility in G1/S (log2) [1]: 0.13
- thermal stability score [2, 5]: 2.28
- thermal stability score ([2]; cell cycle stage: mitosis): 8.8
- solubility change mitosis (log2) [3]: 0.0923
- melting temperature ([4]; cell cycle stage: G1/S): 51.7 °C
- melting temperature ([4]; cell cycle stage: mitosis): 51.9 °C

Sequence: MSEREERRFVEIPRESVRLMAESTGLELSDEVAALLAEDVCYRLREATQNSSQFMKHTKRRKLTVEDFNRALRWSSVEAVCGYGSQEALPMRPAREGELYFPEDREVNLVELALATNIPKGCAETAVRVHVSYLDGKGNLAPQGSVPSAVSSLTDDLLKYYHQVTRAVLGDDPQLMKVALQDLQTNSKIGALLPYFVYVVSGVKSVSHDLEQLHRLLQVARSLFRNPHLCLGPYVRCLVGSVLYCVLEPLAASINPLNDHWTLRDGAALLLSHIFWTHGDLVSGLYQHILLSLQKILADPVRPLCCHYGAVVGLHALGWKAVERVLYPHLSTYWTNLQAVLDDYSVSNAQVKADGHKVYGAILVAVERLLKMKAQAAEPNRGGPGGRGCRRLDDLPWDSLLFQESSSGGGAEPSFGSGLPLPPGGAGPEDPSLSVTLADIYRELYAFFGDSLATRFGTGQPAPTAPRPPGDKKEPAAAPDSVRKMPQLTASAIVSPHGDESPRGSGGGGPASASGPAASESRPLPRVHRARGAPRQQGPGTGTRDVFQKSRFAPRGAPHFRFIIAGRQAGRRCRGRLFQTAFPAPYGPSPASRYVQKLPMIGRTSRPARRWALSDYSLYLPL [TAF6L]
- solubility in G1/S (log2) [1]: 0.0555
- thermal stability score [2, 5]: 0.603
- thermal stability score ([2]; cell cycle stage: mitosis): 1.02
- solubility change mitosis (log2) [3]: -0.115
- melting temperature ([4]; cell cycle stage: G1/S): 49.3 °C
- melting temperature ([4]; cell cycle stage: mitosis): 49.5 °C

Sequence: MSESFDCAKCNESLYGRKYIQTDSGPYCVPCYDNTFANTCAECQQLIGHDSRELFYEDRHFHEGCFRCCRCQRSLADEPFTCQDSELLCNDCYCSAFSSQCSACGETVMPGSRKLEYGGQTWHEHCFLCSGCEQPLGSRSFVPDKGAHYCVPCYENKFAPRCARCSKTLTQGGVTYRDQPWHRECLVCTGCQTPLAGQQFTSRDEDPYCVACFGELFAPKCSSCKRPIVGLGGGKYVSFEDRHWHHNCFSCARCSTSLVGQGFVPDGDQVLCQGCSQAGP [FHL3]
- solubility in G1/S (log2) [1]: -0.281
- thermal stability score [2, 5]: 0.504
- thermal stability score ([2]; cell cycle stage: mitosis): -1.78
- solubility change mitosis (log2) [3]: -0.184
- melting temperature ([4]; cell cycle stage: G1/S): 57.7 °C
- melting temperature ([4]; cell cycle stage: mitosis): 56.8 °C

Sequence: MSFDPNLLHNNGHNGYPNGTSAALRETGVIEKLLTSYGFIQCSERQARLFFHCSQYNGNLQDLKVGDDVEFEVSSDRRTGKPIAVKLVKIKQEILPEERMNGQVVCAVPHNLESKSPAAPGQSPTGSVCYERNGEVFYLTYTPEDVEGNVQLETGDKINFVIDNNKHTGAVSARNIMLLKKKQARCQGVVCAMKEAFGFIERGDVVKEIFFHYSEFKGDLETLQPGDDVEFTIKDRNGKEVATDVRLLPQGTVIFEDISIEHFEGTVTKVIPKVPSKNQNDPLPGRIKVDFVIPKELPFGDKDTKSKVTLLEGDHVRFNISTDRRDKLERATNIEVLSNTFQFTNEAREMGVIAAMRDGFGFIKCVDRDVRMFFHFSEILDGNQLHIADEVEFTVVPDMLSAQRNHAIRIKKLPKGTVSFHSHSDHRFLGTVEKEATFSNPKTTSPNKGKEKEAEDGIIAYDDCGVKLTIAFQAKDVEGSTSPQIGDKVEFSISDKQRPGQQVATCVRLLGRNSNSKRLLGYVATLKDNFGFIETANHDKEIFFHYSEFSGDVDSLELGDMVEYSLSKGKGNKVSAEKVNKTHSVNGITEEADPTIYSGKVIRPLRSVDPTQTEYQGMIEIVEEGDMKGEVYPFGIVGMANKGDCLQKGESVKFQLCVLGQNAQTMAYNITPLRRATVECVKDQFGFINYEVGDSKKLFFHVKEVQDGIELQAGDEVEFSVILNQRTGKCSACNVWRVCEGPKAVAAPRPDRLVNRLKNITLDDASAPRLMVLRQPRGPDNSMGFGAERKIRQAGVID [CSDE1]
- solubility in G1/S (log2) [1]: -0.15
- thermal stability score [2, 5]: 1.75
- thermal stability score ([2]; cell cycle stage: mitosis): 4.08
- solubility change mitosis (log2) [3]: -0.111
- melting temperature ([4]; cell cycle stage: G1/S): 47.6 °C
- melting temperature ([4]; cell cycle stage: mitosis): 48.4 °C

Sequence: MSFLKSFPPPGPAEGLLRQQPDTEAVLNGKGLGTGTLYIAESRLSWLDGSGLGFSLEYPTISLHALSRDRSDCLGEHLYVMVNAKFEEESKEPVADEEEEDSDDDVEPITEFRFVPSDKSALEAMFTAMCECQALHPDPEDEDSDDYDGEEYDVEAHEQGQGDIPTFYTYEEGLSHLTAEGQATLERLEGMLSQSVSSQYNMAGVRTEDSIRDYEDGMEVDTTPTVAGQFEDADVDH [CLNS1A]
- solubility in G1/S (log2) [1]: -0.106
- thermal stability score [2, 5]: -0.798
- thermal stability score ([2]; cell cycle stage: mitosis): -0.57
- solubility change mitosis (log2) [3]: 0.0376
- melting temperature ([4]; cell cycle stage: G1/S): 51.7 °C
- melting temperature ([4]; cell cycle stage: mitosis): 52.6 °C
